Read-outs that look alike come from different tables or passages of the source.
Legend:
[1] = target: Staphylococcal enterotoxin B (SEB, r-SEB) (Staphylococcus aureus, UniProt P01552 28-266); assay: AuNP colorimetric aggregation assay; 240 nM random DNA; settings: protein: recombinant; label: none
[2] = target: Staphylococcal enterotoxin B (SEB, r-SEB) (Staphylococcus aureus, UniProt P01552 28-266)

Row | Binder | binding result [1] | binding result [2]
1 | CGTAGTCTAGTGTCGATTAGTTTCCTTGAGACCTTGTGCT (ssDNA) [random ssDNA (RDNA)] | no binding | –
2 | SEB2 aptamer (ssDNA) DNA: TAGCTCACTCATTAGGCACGGGTAGGCCATAATATCTTATTAGCGTAATTCTGCGATTGGCATAGTTAAGCCAGCC | – | binds

Source: paper PMC5816949, “Highly Sensitive Colorimetric Biosensor for Staphylococcal Enterotoxin B by a Label-Free Aptamer and Gold Nanoparticles”
